2 molecules from paper PMC9533685, “NICD3 regulates the expression of MUC5AC and MUC2 by recruiting SMARCA4 and is involved in the differentiation of mucinous colorectal adenocarcinoma” (Molecular Oncology, 2022) can be followed below.

The experiment addresses T1, His-tagged human NOTCH3 intracellular domain (aa 1665-2321) (human, UniProt Q9UM47 1665-2321).
T1 construct: human NOTCH3 intracellular domain, aa 1665-2321; also called His-NICD3; source: E. coli, purified (GeneCreate Biological Engineering)
T1 sequence (looked up): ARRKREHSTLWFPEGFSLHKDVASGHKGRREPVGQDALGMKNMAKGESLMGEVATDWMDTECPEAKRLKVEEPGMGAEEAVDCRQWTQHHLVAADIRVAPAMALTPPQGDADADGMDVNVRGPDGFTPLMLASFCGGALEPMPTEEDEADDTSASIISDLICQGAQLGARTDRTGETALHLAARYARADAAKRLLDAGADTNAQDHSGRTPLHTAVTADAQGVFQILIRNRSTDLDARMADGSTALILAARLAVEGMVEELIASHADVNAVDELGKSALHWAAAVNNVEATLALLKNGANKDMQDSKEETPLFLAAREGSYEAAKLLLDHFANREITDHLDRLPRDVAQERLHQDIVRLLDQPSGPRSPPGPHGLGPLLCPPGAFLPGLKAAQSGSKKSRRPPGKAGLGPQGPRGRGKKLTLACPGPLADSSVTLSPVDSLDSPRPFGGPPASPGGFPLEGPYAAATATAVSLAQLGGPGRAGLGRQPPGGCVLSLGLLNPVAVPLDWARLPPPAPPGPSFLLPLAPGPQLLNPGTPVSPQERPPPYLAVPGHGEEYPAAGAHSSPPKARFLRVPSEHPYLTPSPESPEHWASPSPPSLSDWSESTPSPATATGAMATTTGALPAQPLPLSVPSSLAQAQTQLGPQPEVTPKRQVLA
The experiment is described as follows: pull-down; GST pull-down: purified GST-tagged SMARCA4 segments mixed with His-NICD3 on ice for 3 h, beads, five washes, elution with 15 mM reduced glutathione; blots with anti-GST and anti-His; GST as negative control. Conditions: both partners purified.

B1: GST-tagged SMARCA4 BROMO domain (aa 1455-1566) (domain or fragment, human, UniProt P51532 1455-1566, looked up)
chain: PPNLTKKMKKIVDAVIKYKDSSSGRQLSEVFIQLPSRKELPEYYELIRKPVDFKKIKERIRNHKYRSLNDLEKDVMLLCQNAQTFNLEGSLIYEDSIVLQSVFTSVRQKIEK
notes: also called SMART BROMO domain; source: E. coli, purified (GeneCreate Biological Engineering)
Take B1: the binding result was “binds”.

B2: GST-tagged SMARCA4 BRK domain (aa 612-656) (domain or fragment, human, UniProt P51532 612-656, looked up)
chain: MSDLPVKVIHVESGKILTGTDAPKAGQLEAWLEMNPGYEVAPRSD
notes: also called SMART BRK domain; source: E. coli, purified (GeneCreate Biological Engineering)
Take B2: the binding result is on record as “binds”.
